The data set concerns the molecule itself. Put plainly: crystal structure; CR-VI+ crystals, space group P2_(1)2_(1)2_(1), two molecules in the asymmetric unit; vapour diffusion at 20.5 °C, PGA-HT screen C11 (pH 6.5) with 0.1 M guanidine hydrochloride.

The record followed here is paper PMC4659945, “X-ray structure and activities of an essential Mononegavirales L-protein domain” (Nature Communications, 2015).

The stoichiometry N is the number of molecules, sites or subunits per partner or assembly.

B1: CR-VI+ domain of human metapneumovirus (hMPV) L protein (domain or fragment)
chain: NALLTPIPSPMVNLTQVIDPTEQLAYFPKITFERLKNYDTSSNYAKGKLTRNYMILLPWQHVNRYNFVFSSTGCKVSLKTCIGKLMKDLNPKVLYFIGEGAGNWMARTACEYPDIKFVYRSLKDDLDHHYPLEYQRVIGELSRIIDSGEGLSMETTDATQKTHWDLIHRVSKDALLITLCDAEFKDRDDFFKMVILWRKHVLSCRICTTYGTDLYLFAKYHAKDCNVKLPFFVRSVATFIMQGSKLSGSECYILLTLGHHNNLPCHGEIQNSKMKIAVCNDFYAAKKLDNKSIEANCKSLLSGLRIPINKKELNRQRRLLTLQSNHSSVATVGGSKVIESKWLTNKANTIIDWLEHILNSPKGELNYDFFEALENTYPNMIKLIDNLGNAEIKKLIKVTGYMLVSKK
modifications: disulphide between C1877 of the two copies
notes: L protein (large RNA polymerase) of human metapneumovirus isolate 00-1, GenBank AF371337.2, residues 1599-2005 (CR-VI ~1616-1883 and +domain 1884-2005); synthetic gene, codon optimised for Sf cells; The text calls it a 406-residue fragment, but 1599-2005 counts 407 residues; A selenomethionine form was used for phasing; The construct was also expressed in HEK293T and BL21 Star; crystals came from …
In the case of B1, the “stoichiometry N” value came to 2.
